Biological target: T1, Protein A (on chromatography support) (UniProt P38507 37-327)
T1 construct: Commercial recombinant Protein A resins; also called rProtein A FF; NAb Protein A Plus
Assay: rProtein A FF column, pH gradient, 20 mM sodium citrate, 1 M NaCl
Experimental: The solvent system consisted of solvent A (PBS, 1×), solvent B (20 mM sodium citrate and 1 M NaCl, pH 5.5) and solvent C (20 mM sodium citrate and 1M NaCl, pH 2.5). The elution started with an isocratic elution with 100% A in the first 20 min followed by a quick switch to 100% B at 20 min. […] A linear gradient from 33.5% C to 100% C was followed for 30 min. The flow rate was kept 250 microliters/min and the chromatograms were detected at 280 nm by a UV detector.

Binder | elution pH from Protein A column [pH]
differentially modified heterodimeric human IgG2 Fc/ΔAdpFc (other) chain 1: ERKCCVECPPCPAPPVAGPSVFLFPPKPKDTLMISRTPEVTCVVVDVSHEDPEVQFNWYVDGVEVHNAKTKPREEQFNSTFRVVSVLTVVHQDWLNGKEYKCKVSNKGLPAPIEKTISKTKGQPREPQVYTLPPSREEMTKNQVSLTCLVKGFYPSDIAVEWESNGQPENNYKTTPPMLDSDGSFFLYSKLTVDKSRWQQGNVFSCSVMHEALHNHYTQKSLSLSPGK chain 2: ERKCCVECPPCPAPPVAGPSVFLFPPKPKDTLMISRTPEVTCVVVDVSHEDPEVQFNWYVDGVEVHNAKTKPREEQFNSTFRVVSVLTVVHQDWLNGKEYKCKVSNKGLPAPIEKTISKTKGQPREPQVYTLPPSREEMTKNQVSLTCLVKGFYPSDIAVEWESNGQPENNYKTTPPMLDSDGSFFLYSKLTVDKSRWQQGNVFSCSVMHEALHNRFTQKSLSLSPGK | 4.5
unmodified human homodimeric IgG2 Fc/Fc (other, UniProt P01859-1 99-326, looked up, domain: Fc; also called hIgG2 Fc/Fc; hIgG2) ERKCCVECPPCPAPPVAGPSVFLFPPKPKDTLMISRTPEVTCVVVDVSHEDPEVQFNWYVDGVEVHNAKTKPREEQFNSTFRVVSVLTVVHQDWLNGKEYKCKVSNKGLPAPIEKTISKTKGQPREPQVYTLPPSREEMTKNQVSLTCLVKGFYPSDISVEWESNGQPENNYKTTPPMLDSDGSFFLYSKLTVDKSRWQQGNVFSCSVMHEALHNHYTQKSLSLSPGK | 3.5

From patent US20190031713A1 (Regeneron, published 2019)
